Experimental data published in US20150299281A1 (ZEALAND PHARMA A S, published 2015).
Square brackets hold non-standard residues; d marks the D form. Aib = CC(C)(N)C(=O)O

B1: Compound 13 (peptide)
peptide: H-Y[Aib]EGTFTSDYSIYSDKKAQRAFVNWLLA[Aib]K-NH2
SMILES: CC[C@H](C)[C@H](NC(=O)[C@H](CO)NC(=O)[C@H](Cc1ccc(O)cc1)NC(=O)[C@H](CC(=O)O)NC(=O)[C@H](CO)NC(=O)[C@@H](NC(=O)[C@H](Cc1ccccc1)NC(=O)[C@@H](NC(=O)CNC(=O)[C@H](CCC(=O)O)NC(=O)C(C)(C)NC(=O)[C@@H](N)Cc1ccc(O)cc1)[C@@H](C)O)[C@@H](C)O)C(=O)N[C@@H](Cc1ccc(O)cc1)C(=O)N[C@@H](CO)C(=O)N[C@@H](CC(=O)O)C(=O)N[C@@H](CCCCN)C(=O)N[C@@H](CCCCN)C(=O)N[C@@H](C)C(=O)N[C@@H](CCC(N)=O)C(=O)N[C@@H](CCCNC(=N)N)C(=O)N[C@@H](C)C(=O)N[C@@H](Cc1ccccc1)C(=O)N[C@H](C(=O)N[C@@H](CC(N)=O)C(=O)N[C@@H](Cc1c[nH]c2ccccc12)C(=O)N[C@@H](CC(C)C)C(=O)N[C@@H](CC(C)C)C(=O)N[C@@H](C)C(=O)NC(C)(C)C(=O)N[C@@H](CCCCN)C(N)=O)C(C)C
B2: Compound 14 (peptide)
peptide: H-Y[Aib]EGTFTSDYSIYLEKKAQRAFVNWLLA[Aib]K-NH2
SMILES: CC[C@H](C)[C@H](NC(=O)[C@H](CO)NC(=O)[C@H](Cc1ccc(O)cc1)NC(=O)[C@H](CC(=O)O)NC(=O)[C@H](CO)NC(=O)[C@@H](NC(=O)[C@H](Cc1ccccc1)NC(=O)[C@@H](NC(=O)CNC(=O)[C@H](CCC(=O)O)NC(=O)C(C)(C)NC(=O)[C@@H](N)Cc1ccc(O)cc1)[C@@H](C)O)[C@@H](C)O)C(=O)N[C@@H](Cc1ccc(O)cc1)C(=O)N[C@@H](CC(C)C)C(=O)N[C@@H](CCC(=O)O)C(=O)N[C@@H](CCCCN)C(=O)N[C@@H](CCCCN)C(=O)N[C@@H](C)C(=O)N[C@@H](CCC(N)=O)C(=O)N[C@@H](CCCNC(=N)N)C(=O)N[C@@H](C)C(=O)N[C@@H](Cc1ccccc1)C(=O)N[C@H](C(=O)N[C@@H](CC(N)=O)C(=O)N[C@@H](Cc1c[nH]c2ccccc12)C(=O)N[C@@H](CC(C)C)C(=O)N[C@@H](CC(C)C)C(=O)N[C@@H](C)C(=O)NC(C)(C)C(=O)N[C@@H](CCCCN)C(N)=O)C(C)C
B3: Compound 15 (peptide)
peptide: H-Y[Aib]EGTFTSDYSIALEKKAQRAFVNWLLA[Aib]K-NH2
SMILES: CC[C@H](C)[C@H](NC(=O)[C@H](CO)NC(=O)[C@H](Cc1ccc(O)cc1)NC(=O)[C@H](CC(=O)O)NC(=O)[C@H](CO)NC(=O)[C@@H](NC(=O)[C@H](Cc1ccccc1)NC(=O)[C@@H](NC(=O)CNC(=O)[C@H](CCC(=O)O)NC(=O)C(C)(C)NC(=O)[C@@H](N)Cc1ccc(O)cc1)[C@@H](C)O)[C@@H](C)O)C(=O)N[C@@H](C)C(=O)N[C@@H](CC(C)C)C(=O)N[C@@H](CCC(=O)O)C(=O)N[C@@H](CCCCN)C(=O)N[C@@H](CCCCN)C(=O)N[C@@H](C)C(=O)N[C@@H](CCC(N)=O)C(=O)N[C@@H](CCCNC(=N)N)C(=O)N[C@@H](C)C(=O)N[C@@H](Cc1ccccc1)C(=O)N[C@H](C(=O)N[C@@H](CC(N)=O)C(=O)N[C@@H](Cc1c[nH]c2ccccc12)C(=O)N[C@@H](CC(C)C)C(=O)N[C@@H](CC(C)C)C(=O)N[C@@H](C)C(=O)NC(C)(C)C(=O)N[C@@H](CCCCN)C(N)=O)C(C)C
B4: Compound 12 (peptide)
peptide: H-Y[Aib]EGTFTSDYSIALDKKAQRAFVNWLLA[Aib]K-NH2
SMILES: CC[C@H](C)[C@H](NC(=O)[C@H](CO)NC(=O)[C@H](Cc1ccc(O)cc1)NC(=O)[C@H](CC(=O)O)NC(=O)[C@H](CO)NC(=O)[C@@H](NC(=O)[C@H](Cc1ccccc1)NC(=O)[C@@H](NC(=O)CNC(=O)[C@H](CCC(=O)O)NC(=O)C(C)(C)NC(=O)[C@@H](N)Cc1ccc(O)cc1)[C@@H](C)O)[C@@H](C)O)C(=O)N[C@@H](C)C(=O)N[C@@H](CC(C)C)C(=O)N[C@@H](CC(=O)O)C(=O)N[C@@H](CCCCN)C(=O)N[C@@H](CCCCN)C(=O)N[C@@H](C)C(=O)N[C@@H](CCC(N)=O)C(=O)N[C@@H](CCCNC(=N)N)C(=O)N[C@@H](C)C(=O)N[C@@H](Cc1ccccc1)C(=O)N[C@H](C(=O)N[C@@H](CC(N)=O)C(=O)N[C@@H](Cc1c[nH]c2ccccc12)C(=O)N[C@@H](CC(C)C)C(=O)N[C@@H](CC(C)C)C(=O)N[C@@H](C)C(=O)NC(C)(C)C(=O)N[C@@H](CCCCN)C(N)=O)C(C)C
B5: Compound 8 (peptide)
peptide: H-Y[Aib]EGTFSSDYSIYLDKKAQRAFVNWLLA[Aib]K-NH2
SMILES: CC[C@H](C)[C@H](NC(=O)[C@H](CO)NC(=O)[C@H](Cc1ccc(O)cc1)NC(=O)[C@H](CC(=O)O)NC(=O)[C@H](CO)NC(=O)[C@H](CO)NC(=O)[C@H](Cc1ccccc1)NC(=O)[C@@H](NC(=O)CNC(=O)[C@H](CCC(=O)O)NC(=O)C(C)(C)NC(=O)[C@@H](N)Cc1ccc(O)cc1)[C@@H](C)O)C(=O)N[C@@H](Cc1ccc(O)cc1)C(=O)N[C@@H](CC(C)C)C(=O)N[C@@H](CC(=O)O)C(=O)N[C@@H](CCCCN)C(=O)N[C@@H](CCCCN)C(=O)N[C@@H](C)C(=O)N[C@@H](CCC(N)=O)C(=O)N[C@@H](CCCNC(=N)N)C(=O)N[C@@H](C)C(=O)N[C@@H](Cc1ccccc1)C(=O)N[C@H](C(=O)N[C@@H](CC(N)=O)C(=O)N[C@@H](Cc1c[nH]c2ccccc12)C(=O)N[C@@H](CC(C)C)C(=O)N[C@@H](CC(C)C)C(=O)N[C@@H](C)C(=O)NC(C)(C)C(=O)N[C@@H](CCCCN)C(N)=O)C(C)C
B6: Compound 11 (peptide)
peptide: H-Y[Aib]EGTFTSDYLIYLDKKAQRAFVNWLLA[Aib]K-NH2
SMILES: CC[C@H](C)[C@H](NC(=O)[C@H](CC(C)C)NC(=O)[C@H](Cc1ccc(O)cc1)NC(=O)[C@H](CC(=O)O)NC(=O)[C@H](CO)NC(=O)[C@@H](NC(=O)[C@H](Cc1ccccc1)NC(=O)[C@@H](NC(=O)CNC(=O)[C@H](CCC(=O)O)NC(=O)C(C)(C)NC(=O)[C@@H](N)Cc1ccc(O)cc1)[C@@H](C)O)[C@@H](C)O)C(=O)N[C@@H](Cc1ccc(O)cc1)C(=O)N[C@@H](CC(C)C)C(=O)N[C@@H](CC(=O)O)C(=O)N[C@@H](CCCCN)C(=O)N[C@@H](CCCCN)C(=O)N[C@@H](C)C(=O)N[C@@H](CCC(N)=O)C(=O)N[C@@H](CCCNC(=N)N)C(=O)N[C@@H](C)C(=O)N[C@@H](Cc1ccccc1)C(=O)N[C@H](C(=O)N[C@@H](CC(N)=O)C(=O)N[C@@H](Cc1c[nH]c2ccccc12)C(=O)N[C@@H](CC(C)C)C(=O)N[C@@H](CC(C)C)C(=O)N[C@@H](C)C(=O)NC(C)(C)C(=O)N[C@@H](CCCCN)C(N)=O)C(C)C

Each binder was assayed against T1, human GIP receptor (human, UniProt P48546 22-466) (assay: cell-based or functional assay).
T1 sequence (looked up): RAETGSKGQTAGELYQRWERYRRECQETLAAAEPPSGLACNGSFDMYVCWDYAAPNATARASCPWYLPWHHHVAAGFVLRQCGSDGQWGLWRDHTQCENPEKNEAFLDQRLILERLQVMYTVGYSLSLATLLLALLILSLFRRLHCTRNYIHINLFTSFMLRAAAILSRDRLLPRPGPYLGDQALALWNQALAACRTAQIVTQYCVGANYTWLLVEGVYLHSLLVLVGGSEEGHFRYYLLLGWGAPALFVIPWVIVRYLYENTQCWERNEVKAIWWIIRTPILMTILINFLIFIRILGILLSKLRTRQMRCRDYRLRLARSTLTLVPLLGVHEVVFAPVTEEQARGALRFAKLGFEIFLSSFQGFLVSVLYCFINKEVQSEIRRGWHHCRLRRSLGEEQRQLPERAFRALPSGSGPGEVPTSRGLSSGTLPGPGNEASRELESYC

Point of comparison: B2, “EC50, cAMP induction in HEK293 cells expressing human GIP R” value 0.036 nM. Against it:
- B1 — 3.9-fold higher, 0.14 nM
- B3 — 1.7-fold higher, 0.06 nM
- B4 — within 1.5-fold, 0.05 nM
- B5 — 2.8-fold higher, 0.1 nM
- B6 — 21-fold higher, 0.76 nM

Each binder was assayed against human GLP-1 receptor (human, UniProt P43220 24-463) (assay: cell-based or functional assay).

Point of comparison: B1, “EC50, cAMP induction in HEK293 cells expressing human GLP-1 R” value 0.032 nM. Against it:
- B2 — 3.7-fold lower, 0.0087 nM
- B3 — 3.2-fold lower, 0.01 nM
- B4 — 3.2-fold lower, 0.01 nM
- B5 — within 1.5-fold, 0.029 nM
- B6 — 15-fold higher, 0.47 nM
